FRET IκBα diubiquitination in test tube, time course to 10 min: IκBα–Ub2 product by gel, FRET signal rising alike (Fig. 2A), real-time FRET IκBα diubiquitination, 30 °C, 30 min; conversion of substrate by gel analysis (Fig. 3A, B) and real-time FRET IκBα diubiquitination under single-round turnover condition (preformed complexes treated with apyrase) (Fig. 4) data for one substance are collected here from publication PMC7948536.

Where only a bound is given, the exact number is not on record here.

In experiment [1] the target is E3 SCF^βTrCP (neddylated; Skp1–βTrCP with Nedd8–ROC1–CUL1) (UniProt P63208).
For experiment [2] the target is unchanged. This is another data set of the same source.
The target is the same in experiment [3]. The source holds these as a separate data set.

The substance “IκBα (EE)–Ub (E64C)–I647 (from UniProt P25963 1-20; P0CG48 1-74; P25963 23-54)” returned an FRET IκBα diubiquitination in test tube, time course to 10 min: IκBα–Ub2 product by gel, FRET signal rising alike (Fig. 2A) in experiment [1] of over 30%. Further, the real-time FRET IκBα diubiquitination, 30 °C, 30 min; conversion of substrate by gel analysis (Fig. 3A, B) in experiment [2] was determined as 85%. In experiment [3], this substance registered a real-time FRET IκBα diubiquitination under single-round turnover condition (preformed complexes treated with apyrase) (Fig. 4) of 20%.
